We go through five molecules from paper PMC7672431, “NMR structure of a vestigial nuclease provides insight into the evolution of functional transitions in viral dsDNA packaging motors” (Nucleic Acids Research, 2020).

In data set [1] the target is phi29 gp16 CTD (residues 223–332; C-terminal domain of the packaging ATPase) (bacteriophage phi29) (UniProt P11014). Nature of the data set: AUC; sedimentation velocity, 42 000 rpm, 30°C, c(s) distribution in SEDFIT; CTD-L at 25 and 55 μM, CTD at 30 and 85 μM.
Data set [2] addresses T1, phi29 DNA packaging ATPase gp16, full length, assembled as a pentameric ring in the packaging motor on procapsids (bacteriophage phi29), P11014.
T1 chain: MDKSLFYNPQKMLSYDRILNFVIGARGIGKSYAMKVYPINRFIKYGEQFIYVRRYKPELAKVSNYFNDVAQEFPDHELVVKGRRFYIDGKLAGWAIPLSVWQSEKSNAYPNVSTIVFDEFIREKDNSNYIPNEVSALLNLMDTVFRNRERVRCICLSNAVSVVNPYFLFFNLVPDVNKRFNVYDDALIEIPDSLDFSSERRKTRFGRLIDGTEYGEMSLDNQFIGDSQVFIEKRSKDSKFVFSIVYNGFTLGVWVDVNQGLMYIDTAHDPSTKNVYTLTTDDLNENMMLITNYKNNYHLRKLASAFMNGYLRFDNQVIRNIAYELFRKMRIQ
The experiment in a line: cryo-EM structure; NMR structure of the CTD fitted into a ∼5.2 Å cryoEM map of phi29 particles stalled during packaging with γ-S-ATP (map of ref. 25; CTD density 5-fold averaged). Particulars: remark: other sources report otherwise.

Data set [3] deals with the molecule itself. Nature of the data set: AUC; sedimentation velocity, 42 000 rpm, 30°C, c(s) distribution in SEDFIT; CTD-L at 25 and 55 μM, CTD at 30 and 85 μM.
The target of data set [4] is T2, gp16 CTD (C-terminal domain of DNA packaging ATPase) (bacteriophage phi29, UniProt P11014 223-332).
T2 sequence: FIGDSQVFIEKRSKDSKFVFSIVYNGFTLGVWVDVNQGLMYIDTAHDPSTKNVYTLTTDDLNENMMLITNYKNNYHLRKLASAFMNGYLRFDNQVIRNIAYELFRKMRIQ
The experiment in a line: fluorescence intensity titration; Fluorescence: 50 mM sodium phosphate pH 6.5, 200 mM NaCl, temperature not stated; NMR: same buffer plus 0.02% NaN3, 2 mM DSS, ~100 uM protein, 303 K. The note with it: protein: recombinant, tags: His tag implied (pET30a NdeI/XhoI, Talon resin).

On to “phi29 gp16 CTD (residues 223–332; C-terminal domain of the packaging ATPase) (from UniProt P11014 223-332) (domain or fragment)”, for which the percent dimers at 30 and 85 μM in data set [1] was 2%.

B1: phi29 DNA packaging ATPase gp16, full length, assembled as a pentameric ring in the packaging motor on procapsids, P11014 1-332 (enzyme)
chain: T1 chain
As usually defined, the stoichiometry N is a count of units in the complex or per binding partner. Consider B1, for which the stoichiometry N in data set [2] was 5.

B2: phi29 gp16 CTD-L (residues 208–332; inter-domain linker and C-terminal domain of the packaging ATPase) (domain or fragment, bacteriophage phi29, UniProt P11014 208-332, looked up)
chain: LIDGTEYGEMSLDNQFIGDSQVFIEKRSKDSKFVFSIVYNGFTLGVWVDVNQGLMYIDTAHDPSTKNVYTLTTDDLNENMMLITNYKNNYHLRKLASAFMNGYLRFDNQVIRNIAYELFRKMRIQ
notes: DNA packaging ATPase gp16 of bacteriophage phi29 (332 amino acids), residues 208-332: inter-domain linker plus C-terminal domain; Cloned between NdeI and XhoI of pET30a, which would add a C-terminal His6 tag (surmised); Isotope-labelled for the NMR experiments; also called gp16 CTD-L (208–332); source: E. coli BL21(DE3), pET30a, purified (Talon resin, HiTrap Q HP)
Consider B2, for which the “stoichiometry N” value in data set [3] was 2.

B3: pRNA A-helix mimic, 3'-fluorescein (structured_RNA)
RNA: UCAAUGGUACGGUACUUCCAUUGUCAUGUUUUUCAUGGCAAAAGUGCACGCUACUUUGAU
A word on the Kd: it is the free concentration of one partner at which half of the binding sites on the other are occupied at equilibrium, for simple one-to-one binding. B3: the Kd in data set [4] (label: 3' fluorescein (36FAM), hairpin) is 3.2 µM.

B4: 22 bp dsDNA, 3'-fluorescein (dsDNA)
DNA 1: GGTATCATGTGAGGGTGGGGGC
DNA 2: GCCCCCACCCTCACATGATACC
Turning to B4, the Kd in data set [4] (label: 3' fluorescein (36FAM) on strand 1, blunt) came to 3.1 µM.
